Measured values as given in US20160280799A1.

How the values were obtained:
[1] = target: hemagglutinin (HA) of A/Vietnam/1194/04 (H5N1) on MLV(HA) pseudotyped virions (influenza A virus A/Vietnam/1194/04 (H5N1))
[2] = substrate: F protein of RSV (Long strain) (human respiratory syncytial virus, Long strain) (UniProt P12568); test: cell-based or functional assay
Chain of F protein of RSV (Long strain) (human respiratory syncytial virus, Long strain) (P12568 26-574): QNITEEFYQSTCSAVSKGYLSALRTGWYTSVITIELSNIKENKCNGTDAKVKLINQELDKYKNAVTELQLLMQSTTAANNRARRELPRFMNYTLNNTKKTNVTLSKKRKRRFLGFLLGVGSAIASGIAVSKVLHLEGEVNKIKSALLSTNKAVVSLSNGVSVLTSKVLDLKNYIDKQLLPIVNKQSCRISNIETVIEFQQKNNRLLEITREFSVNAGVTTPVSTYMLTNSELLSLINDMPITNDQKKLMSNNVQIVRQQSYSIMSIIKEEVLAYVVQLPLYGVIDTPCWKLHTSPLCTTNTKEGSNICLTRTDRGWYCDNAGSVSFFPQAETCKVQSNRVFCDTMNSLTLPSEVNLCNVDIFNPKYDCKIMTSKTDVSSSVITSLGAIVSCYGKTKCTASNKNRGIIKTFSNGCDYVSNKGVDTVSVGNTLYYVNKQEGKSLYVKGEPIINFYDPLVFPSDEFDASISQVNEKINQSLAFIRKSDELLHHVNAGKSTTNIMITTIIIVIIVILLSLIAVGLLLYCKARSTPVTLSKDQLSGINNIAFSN

Binder	IC50 (read off the curve) [1] [nM]	IC50, neutralization of RSV infection, Long strain [2] [nM]
203-H9 (VHH) VHH: EVQLVESGGGLVQPGGSLRLSCTGSGFTFSSYWMDWVRQTPGKDLEYVSGISPSGGNTDYADSVKGRFTISRDNAKNTLYLQMNSLQPEDTALYYCRRSLTLTDSPDLRSQGTQVTVSS	8	
202-C8 (VHH) VHH: EVQLVESGGGLVQPGGSLRLSCTGSGFTFSSYWMDWVRQTPGKDLEYVSGISPSGSNTDYADSVKGRFTISRDNAKNTLYLQMNSLKPEDTALYYCRRSLTLTDSPDLRSQGTQVTVSS	10	
203-B12 (VHH) VHH: EVQLVESGGGLVQPGGSLRLSCAASGFTFSSYAMGWVRRAPGEGLEWVSSISSGGALPTYADSVKGRFTISRDNVKNTLYLQMNSLKPEDTAVYSCEKYAGSMWTSERDAWGQGTQVTVSS	10	
building block of RSV407 (monovalent) (VHH) VHH: EVQLVESGGGLVQAGGSLSISCAASGGSLSNYVLGWFRQAPGKEREFVAAINWRGDITIGPPNVEGRFTISRDNAKNTGYLQMNSLAPDDTAVYYCGAGTPLNPGAYIYDWSYDYWGRGTQVTVSS		50 to 100
